Test results: paper PMC11558545, “Mechanistic Insights into the Function of 14-3-3 Proteins as Negative Regulators of Brassinosteroid Signaling in Arabidopsis” (Plant and Cell Physiology, 2024)
Blank lines part the entries; values can stand above or below the binder they belong to. Square brackets hold non-standard residues; d marks the D form. Ends that are not written are not given here. pT = C[C@@H](OP(=O)(O)O)[C@H](N)C(=O)O; pS = N[C@@H](COP(=O)(O)O)C(=O)O

B1: C-terminal truncated At14-3-3-ω^1−237 (domain or fragment, Arabidopsis thaliana, UniProt Q01525 1-237, looked up)
chain: MASGREEFVYMAKLAEQAERYEEMVEFMEKVSAAVDGDELTVEERNLLSVAYKNVIGARRASWRIISSIEQKEESRGNDDHVTAIREYRSKIETELSGICDGILKLLDSRLIPAAASGDSKVFYLKMKGDYHRYLAEFKTGQERKDAAEHTLAAYKSAQDIANAELAPTHPIRLGLALNFSVFYYEILNSPDRACNLAKQAFDEAIAELDTLGEESYKDSTLIMQLLRDNLTLWTSD
notes: 14-3-3 omega (GRF2), Arabidopsis thaliana, residues 1-237; also called truncated 14-3-3 ω; not shown: thioredoxin A, N-terminal, cleaved; 8xHis, N-terminal, cleaved; StrepII, N-terminal, cleaved
B4: Arabidopsis 14-3-3 omega, full length (At14-3-3-ω^1−259) (natural protein, Arabidopsis thaliana, UniProt Q01525 1-259, looked up)
chain: MASGREEFVYMAKLAEQAERYEEMVEFMEKVSAAVDGDELTVEERNLLSVAYKNVIGARRASWRIISSIEQKEESRGNDDHVTAIREYRSKIETELSGICDGILKLLDSRLIPAAASGDSKVFYLKMKGDYHRYLAEFKTGQERKDAAEHTLAAYKSAQDIANAELAPTHPIRLGLALNFSVFYYEILNSPDRACNLAKQAFDEAIAELDTLGEESYKDSTLIMQLLRDNLTLWTSDMQDDAADEIKEAAAPKPTEEQQ
notes: 14-3-3 omega (GRF2), Arabidopsis thaliana, full length, residues 1-259; ITC and SEC-RALS name 14-3-3 ω without limits; not shown: thioredoxin A, N-terminal, cleaved; 8xHis, N-terminal, cleaved; StrepII, N-terminal, cleaved
B5: Arabidopsis 14-3-3 lambda (At14-3-3-λ^1−248) (natural protein, Arabidopsis thaliana, UniProt P48349 1-248, looked up)
chain: MAATLGRDQYVYMAKLAEQAERYEEMVQFMEQLVTGATPAEELTVEERNLLSVAYKNVIGSLRAAWRIVSSIEQKEESRKNDEHVSLVKDYRSKVESELSSVCSGILKLLDSHLIPSAGASESKVFYLKMKGDYHRYMAEFKSGDERKTAAEDTMLAYKAAQDIAAADMAPTHPIRLGLALNFSVFYYEILNSSDKACNMAKQAFEEAIAELDTLGEESYKDSTLIMQLLRDNLTLWTSDMQEQMDEA
notes: 14-3-3 lambda (GRF6), Arabidopsis thaliana, full length, residues 1-248; The ITC text names 14-3-3λ without limits; a truncated 1-240 construct was also cloned; not shown: thioredoxin A, N-terminal, cleaved; 8xHis, N-terminal, cleaved; StrepII, N-terminal, cleaved

Assays:
[1] = biological target: the molecule itself; assay: crystal structure; co-crystallisation of 14-3-3 with 1-3 mM phosphopeptide; molecular replacement
[2] = biological target: B1; assay: as above; details: both partners purified
[3] = biological target: B5; assay: ITC; Nano ITC, 25°C, 25 mM Hepes pH 7.0, 50 mM KCl; 600 μM peptide or phosphopeptide injected into 50 μM 14-3-3 protein in the cell, 25 injections; details: both partners purified
[4] = biological target: T1, At14-3-3 λ^N233A (Arabidopsis thaliana, UniProt P48349 1-248, N233A); assay: as above; details: both partners purified
T1 construct: 14-3-3 lambda (GRF6), Arabidopsis thaliana, with N233A; also called 14-3-3λ Asn233→ Ala mutant; source: E. coli BL21 (DE3) RIL, purified using the same protocol as the wild type; not shown: thioredoxin A, N-terminal, cleaved; 8xHis, N-terminal, cleaved; StrepII, N-terminal, cleaved
T1 sequence (looked up): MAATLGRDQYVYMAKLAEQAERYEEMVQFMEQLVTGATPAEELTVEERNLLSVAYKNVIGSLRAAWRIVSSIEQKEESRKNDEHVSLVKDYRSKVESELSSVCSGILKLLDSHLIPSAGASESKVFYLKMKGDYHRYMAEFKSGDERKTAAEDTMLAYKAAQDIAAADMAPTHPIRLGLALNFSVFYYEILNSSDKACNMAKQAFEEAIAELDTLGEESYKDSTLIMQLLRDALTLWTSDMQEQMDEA

[5] = biological target: the molecule itself; assay: SEC; analytical, Superdex 200 increase 10/300 GL, 25 mM Hepes pH 7.0, 50 mM KCl; 500 μl of protein at 2.0 mg/ml
[6] = biological target: B4; assay: crystal structure; co-crystallisation of 14-3-3 with 1-3 mM phosphopeptide; molecular replacement; details: both partners purified
[7] = biological target: T2, Arabidopsis 14-3-3 isoform kappa (At14-3-3-κ^1−248) (Arabidopsis thaliana, UniProt P48348 1-248); assay: ITC; Nano ITC, 25°C, 25 mM Hepes pH 7.0, 50 mM KCl; 600 μM peptide or phosphopeptide injected into 50 μM 14-3-3 protein in the cell, 25 injections; details: both partners purified
T2 construct: 14-3-3 kappa (GRF8), Arabidopsis thaliana, full length, residues 1-248; The ITC text names 14-3-3κ without limits; a truncated 1-240 construct was also cloned; not shown: thioredoxin A, N-terminal, cleaved; 8xHis, N-terminal, cleaved; StrepII, N-terminal, cleaved
T2 sequence (looked up): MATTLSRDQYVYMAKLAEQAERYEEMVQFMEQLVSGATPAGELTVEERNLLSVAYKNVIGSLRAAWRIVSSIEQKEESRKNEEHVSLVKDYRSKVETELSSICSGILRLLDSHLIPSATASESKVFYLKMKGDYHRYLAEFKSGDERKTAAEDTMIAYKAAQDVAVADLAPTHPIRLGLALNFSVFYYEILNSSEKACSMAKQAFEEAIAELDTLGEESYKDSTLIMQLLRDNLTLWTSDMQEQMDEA

[8] = biological target: B4; assay: as above; details: both partners purified

Binder: B1
binding result [1]: binds

B2: pBZR1^169−175 peptide (peptide)
peptide: RISN[pS]AP
notes: also called RISNpSAP; source: synthetic peptide (Peptide Specialty Laboratories)
binding result [2]: binds
binding result [3]: binds
fold reduction of interaction by the N233A mutation [4]: ~5 fold

Binder: B4
binding result [1]: binds

Binder: B5
binding result [1]: binds

B6: 14-3-3 λ^R136L/Y137F (natural protein, Arabidopsis thaliana, UniProt P48349 1-248, looked up)
chain: MAATLGRDQYVYMAKLAEQAERYEEMVQFMEQLVTGATPAEELTVEERNLLSVAYKNVIGSLRAAWRIVSSIEQKEESRKNDEHVSLVKDYRSKVESELSSVCSGILKLLDSHLIPSAGASESKVFYLKMKGDYHLFMAEFKSGDERKTAAEDTMLAYKAAQDIAAADMAPTHPIRLGLALNFSVFYYEILNSSDKACNMAKQAFEEAIAELDTLGEESYKDSTLIMQLLRDNLTLWTSDMQEQMDEA
notes: 14-3-3 lambda (GRF6), Arabidopsis thaliana, with R136L and Y137F; also called 14-3-3λ Arg136→Leu/Tyr137→ Phe double mutant; source: E. coli BL21 (DE3) RIL, purified using the same protocol as the wild type; not shown: thioredoxin A, N-terminal, cleaved; 8xHis, N-terminal, cleaved; StrepII, N-terminal, cleaved
stoichiometry N [5]: 2

The remaining lines, values ahead:

fold reduction of interaction by the N233A mutation [4]: ~2 fold
B3: pBRI1^869−874 peptide (peptide)
peptide: RKL[pT]FA
notes: BRI1, Arabidopsis thaliana, residues 869-874, N-lobe of the kinase domain; also called RKLpTFA; source: synthetic peptide (Peptide Specialty Laboratories)

binding result [6]: binds
fold reduction of binding against the BZR1^169−175 motif [7]: ~10 fold
stoichiometry N [7]: ~1
B7: pBZR1^169−184 peptide (peptide)
peptide: RISN[pS]CPV[pT]PPVSSPT
notes: also called extended BZR1 linear motif; source: synthetic peptide (Peptide Specialty Laboratories)

binding result [2]: binds
binding result [3]: binds
binding result [8]: binds
binding result [4]: binds
B8: pBKI1^265−272 peptide (peptide)
peptide: RGELF[pS]AP
notes: also called RGELFpSAP; source: synthetic peptide (Peptide Specialty Laboratories)
